Experimental data from US20150344570A1 (published 2015).

B1: GpH7-A5/GpH7-B3 variant P329_01G/GpL16-k0 (antibody, human IgG1, kappa)
heavy 1: not shown
heavy 2: not shown
light: DIVMTQSPLSLPVTPGEPASISCQASESLVHSNRNTYLHWYLQKPGQSPQLLIYKVSNRFSGVPDRFSGSGSGTDFTLKISRVEAEDVGVYYCSQNTHVPPTFGQGTKVEIERTVAAPSVFIFPPSDEQLKSGTASVVCLLNNFYPREAKVQWKVDNALQSGNSQESVTEQDSKDSTYSLSSTLTLSKADYEKHKVYACEVTHQGLSSPVTKSFNRGEC
notes: Heterodimerized anti-glypican-3 IgG1 antibody; alteration only in the GpH7-B3 H chain; position in EU numbering; also called He Ab
B2: GpH7-A5/GpH7-B3 variant T335_08L/GpL16-k0 (antibody, human IgG1, kappa)
heavy 1: not shown
heavy 2: not shown
light: DIVMTQSPLSLPVTPGEPASISCQASESLVHSNRNTYLHWYLQKPGQSPQLLIYKVSNRFSGVPDRFSGSGSGTDFTLKISRVEAEDVGVYYCSQNTHVPPTFGQGTKVEIERTVAAPSVFIFPPSDEQLKSGTASVVCLLNNFYPREAKVQWKVDNALQSGNSQESVTEQDSKDSTYSLSSTLTLSKADYEKHKVYACEVTHQGLSSPVTKSFNRGEC
notes: heterodimerized; also called He Ab
B3: GpH7-A5/GpH7-B3 variant Y296_20W/GpL16-k0 (antibody, human IgG1, kappa)
heavy 1: not shown
heavy 2: not shown
light: DIVMTQSPLSLPVTPGEPASISCQASESLVHSNRNTYLHWYLQKPGQSPQLLIYKVSNRFSGVPDRFSGSGSGTDFTLKISRVEAEDVGVYYCSQNTHVPPTFGQGTKVEIERTVAAPSVFIFPPSDEQLKSGTASVVCLLNNFYPREAKVQWKVDNALQSGNSQESVTEQDSKDSTYSLSSTLTLSKADYEKHKVYACEVTHQGLSSPVTKSFNRGEC
notes: as for B2
B4: GpH7-A5/GpH7-B3 variant Y300_04F/GpL16-k0 (antibody, human IgG1, kappa)
heavy 1: not shown
heavy 2: not shown
light: DIVMTQSPLSLPVTPGEPASISCQASESLVHSNRNTYLHWYLQKPGQSPQLLIYKVSNRFSGVPDRFSGSGSGTDFTLKISRVEAEDVGVYYCSQNTHVPPTFGQGTKVEIERTVAAPSVFIFPPSDEQLKSGTASVVCLLNNFYPREAKVQWKVDNALQSGNSQESVTEQDSKDSTYSLSSTLTLSKADYEKHKVYACEVTHQGLSSPVTKSFNRGEC
notes: as for B2
B5: GpH7-A5/GpH7-B3 variant T335_06M/GpL16-k0 (antibody, human IgG1, kappa)
heavy 1: not shown
heavy 2: not shown
light: DIVMTQSPLSLPVTPGEPASISCQASESLVHSNRNTYLHWYLQKPGQSPQLLIYKVSNRFSGVPDRFSGSGSGTDFTLKISRVEAEDVGVYYCSQNTHVPPTFGQGTKVEIERTVAAPSVFIFPPSDEQLKSGTASVVCLLNNFYPREAKVQWKVDNALQSGNSQESVTEQDSKDSTYSLSSTLTLSKADYEKHKVYACEVTHQGLSSPVTKSFNRGEC
notes: as for B2
B6: GpH7-A5/GpH7-B3 variant T335_16H/GpL16-k0 (antibody, human IgG1, kappa)
heavy 1: not shown
heavy 2: not shown
light: DIVMTQSPLSLPVTPGEPASISCQASESLVHSNRNTYLHWYLQKPGQSPQLLIYKVSNRFSGVPDRFSGSGSGTDFTLKISRVEAEDVGVYYCSQNTHVPPTFGQGTKVEIERTVAAPSVFIFPPSDEQLKSGTASVVCLLNNFYPREAKVQWKVDNALQSGNSQESVTEQDSKDSTYSLSSTLTLSKADYEKHKVYACEVTHQGLSSPVTKSFNRGEC
notes: as for B2
B7: GpH7-A5/GpH7-B3 variant T335_09D/GpL16-k0 (antibody, human IgG1, kappa)
heavy 1: not shown
heavy 2: not shown
light: DIVMTQSPLSLPVTPGEPASISCQASESLVHSNRNTYLHWYLQKPGQSPQLLIYKVSNRFSGVPDRFSGSGSGTDFTLKISRVEAEDVGVYYCSQNTHVPPTFGQGTKVEIERTVAAPSVFIFPPSDEQLKSGTASVVCLLNNFYPREAKVQWKVDNALQSGNSQESVTEQDSKDSTYSLSSTLTLSKADYEKHKVYACEVTHQGLSSPVTKSFNRGEC
notes: as for B2
B8: GpH7-A5/GpH7-B3 variant Y300_05P/GpL16-k0 (antibody, human IgG1, kappa)
heavy 1: not shown
heavy 2: not shown
light: DIVMTQSPLSLPVTPGEPASISCQASESLVHSNRNTYLHWYLQKPGQSPQLLIYKVSNRFSGVPDRFSGSGSGTDFTLKISRVEAEDVGVYYCSQNTHVPPTFGQGTKVEIERTVAAPSVFIFPPSDEQLKSGTASVVCLLNNFYPREAKVQWKVDNALQSGNSQESVTEQDSKDSTYSLSSTLTLSKADYEKHKVYACEVTHQGLSSPVTKSFNRGEC
notes: as for B1
B9: GpH7-A5/GpH7-B3 variant S337_14T/GpL16-k0 (antibody, human IgG1, kappa)
heavy 1: not shown
heavy 2: not shown
light: DIVMTQSPLSLPVTPGEPASISCQASESLVHSNRNTYLHWYLQKPGQSPQLLIYKVSNRFSGVPDRFSGSGSGTDFTLKISRVEAEDVGVYYCSQNTHVPPTFGQGTKVEIERTVAAPSVFIFPPSDEQLKSGTASVVCLLNNFYPREAKVQWKVDNALQSGNSQESVTEQDSKDSTYSLSSTLTLSKADYEKHKVYACEVTHQGLSSPVTKSFNRGEC
notes: as for B2
B10: GpH7-A5/GpH7-B3 variant A330_07I/GpL16-k0 (antibody, human IgG1, kappa)
heavy 1: not shown
heavy 2: not shown
light: DIVMTQSPLSLPVTPGEPASISCQASESLVHSNRNTYLHWYLQKPGQSPQLLIYKVSNRFSGVPDRFSGSGSGTDFTLKISRVEAEDVGVYYCSQNTHVPPTFGQGTKVEIERTVAAPSVFIFPPSDEQLKSGTASVVCLLNNFYPREAKVQWKVDNALQSGNSQESVTEQDSKDSTYSLSSTLTLSKADYEKHKVYACEVTHQGLSSPVTKSFNRGEC
notes: as for B1
B11: GpH7-A5/GpH7-B3 variant T335_20W/GpL16-k0 (antibody, human IgG1, kappa)
heavy 1: not shown
heavy 2: not shown
light: DIVMTQSPLSLPVTPGEPASISCQASESLVHSNRNTYLHWYLQKPGQSPQLLIYKVSNRFSGVPDRFSGSGSGTDFTLKISRVEAEDVGVYYCSQNTHVPPTFGQGTKVEIERTVAAPSVFIFPPSDEQLKSGTASVVCLLNNFYPREAKVQWKVDNALQSGNSQESVTEQDSKDSTYSLSSTLTLSKADYEKHKVYACEVTHQGLSSPVTKSFNRGEC
notes: as for B2
B12: GpH7-A5/GpH7-B3 variant T335_19Q/GpL16-k0 (antibody, human IgG1, kappa)
heavy 1: not shown
heavy 2: not shown
light: DIVMTQSPLSLPVTPGEPASISCQASESLVHSNRNTYLHWYLQKPGQSPQLLIYKVSNRFSGVPDRFSGSGSGTDFTLKISRVEAEDVGVYYCSQNTHVPPTFGQGTKVEIERTVAAPSVFIFPPSDEQLKSGTASVVCLLNNFYPREAKVQWKVDNALQSGNSQESVTEQDSKDSTYSLSSTLTLSKADYEKHKVYACEVTHQGLSSPVTKSFNRGEC
notes: as for B2
B13: GpH7-A5/GpH7-B3 variant A330_03V/GpL16-k0 (antibody, human IgG1, kappa)
heavy 1: not shown
heavy 2: not shown
light: DIVMTQSPLSLPVTPGEPASISCQASESLVHSNRNTYLHWYLQKPGQSPQLLIYKVSNRFSGVPDRFSGSGSGTDFTLKISRVEAEDVGVYYCSQNTHVPPTFGQGTKVEIERTVAAPSVFIFPPSDEQLKSGTASVVCLLNNFYPREAKVQWKVDNALQSGNSQESVTEQDSKDSTYSLSSTLTLSKADYEKHKVYACEVTHQGLSSPVTKSFNRGEC
notes: as for B1
B14: GpH7-A5/GpH7-B3 variant T335_04F/GpL16-k0 (antibody, human IgG1, kappa)
heavy 1: not shown
heavy 2: not shown
light: DIVMTQSPLSLPVTPGEPASISCQASESLVHSNRNTYLHWYLQKPGQSPQLLIYKVSNRFSGVPDRFSGSGSGTDFTLKISRVEAEDVGVYYCSQNTHVPPTFGQGTKVEIERTVAAPSVFIFPPSDEQLKSGTASVVCLLNNFYPREAKVQWKVDNALQSGNSQESVTEQDSKDSTYSLSSTLTLSKADYEKHKVYACEVTHQGLSSPVTKSFNRGEC
notes: as for B2
B15: GpH7-A5/GpH7-B3 variant V266_06M/GpL16-k0 (antibody, human IgG1, kappa)
heavy 1: not shown
heavy 2: not shown
light: DIVMTQSPLSLPVTPGEPASISCQASESLVHSNRNTYLHWYLQKPGQSPQLLIYKVSNRFSGVPDRFSGSGSGTDFTLKISRVEAEDVGVYYCSQNTHVPPTFGQGTKVEIERTVAAPSVFIFPPSDEQLKSGTASVVCLLNNFYPREAKVQWKVDNALQSGNSQESVTEQDSKDSTYSLSSTLTLSKADYEKHKVYACEVTHQGLSSPVTKSFNRGEC
notes: as for B2
B16: GpH7-A5/GpH7-B3 variant T335_18N/GpL16-k0 (antibody, human IgG1, kappa)
heavy 1: not shown
heavy 2: not shown
light: DIVMTQSPLSLPVTPGEPASISCQASESLVHSNRNTYLHWYLQKPGQSPQLLIYKVSNRFSGVPDRFSGSGSGTDFTLKISRVEAEDVGVYYCSQNTHVPPTFGQGTKVEIERTVAAPSVFIFPPSDEQLKSGTASVVCLLNNFYPREAKVQWKVDNALQSGNSQESVTEQDSKDSTYSLSSTLTLSKADYEKHKVYACEVTHQGLSSPVTKSFNRGEC
notes: as for B2

How the values were obtained:
[1] = molecular target: T1, FcγRIIb (human, UniProt P31994 43-217); experiment: SPR (Biacore), antibody captured via antigen peptide, FcγR as analyte
T1 construct: extracellular domain; Soluble His-tagged extracellular domain expressed in FreeStyle293 cells; analyte in Biacore; also called FcgRIIb; 2b; not shown: His tag attached to the C terminus
T1 sequence (looked up): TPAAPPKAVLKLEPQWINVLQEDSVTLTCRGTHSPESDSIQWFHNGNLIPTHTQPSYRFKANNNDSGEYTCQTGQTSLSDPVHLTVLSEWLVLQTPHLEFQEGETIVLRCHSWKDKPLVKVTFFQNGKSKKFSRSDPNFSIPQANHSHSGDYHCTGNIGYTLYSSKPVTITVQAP
Experimental: (§1) The heterodimerized antibodies He Abs in which one of the H chains was introduced with an alteration were assayed for their binding activities to each activating FcγR and inhibitory FcγR according to the method described in Example 4. […] The activating FcγRs in FIGS. 26, 27, 28, and 29 are FcγRIa, FcγRIIa (R), FcγRIIa (H), and FcγRIIIa, respectively.
(§2) Analysis of interaction between objective antibody and the FcγR was carried out using Biacore T100 (GE Healthcare). HBS-EP+ (GE Healthcare) was used as the running buffer, and the measurement temperature was set to 25° C. Chips produced by immobilizing the antigen peptide by the amine coupling method to a Series S Sencor Chip CM5 (GE Healthcare), or alternatively, chips produced by allowing preliminarily biotinylated antigen peptides to interact with and immobilize onto a Series S Sensor Chip SA (certified) (GE Healthcare) were used. Antibodies of interest were captured onto an antigen peptide-immobilized chip, and allowed to interact to each FcγR diluted with running buffer. To regenerate and repeatedly use the chip, the antibodies captured on the chip were washed off by reacting 10 mM glycine-HCl, pH 1.5.

[2] = molecular target: T2, FcγRIIa R (human, UniProt P12318 34-217); experiment: as above
T2 construct: extracellular domain; Soluble His-tagged extracellular domain expressed in FreeStyle293 cells; analyte in Biacore; also called FcgRIIa R; FcgRIIaR; not shown: His tag attached to the C terminus
T2 sequence (looked up): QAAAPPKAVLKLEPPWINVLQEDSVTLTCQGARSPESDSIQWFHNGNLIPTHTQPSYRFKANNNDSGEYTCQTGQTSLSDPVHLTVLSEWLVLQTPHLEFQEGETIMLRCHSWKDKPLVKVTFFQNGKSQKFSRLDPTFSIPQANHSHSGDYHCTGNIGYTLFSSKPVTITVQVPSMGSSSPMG
Experimental: as §1, §2

[3] = molecular target: T2, FcγRIIa R; experiment: ratio of He/Con_2aR to He/Con_2b (binding to FcγRIIb as reference); SPR
[4] = molecular target: T3, FcγRIIa R (extracellular domain, His tag at the C terminus) (human, UniProt P12318 34-217); experiment: SPR (Biacore), relative binding, control GpH7-A5/GpH7-B3/GpL16-k0 = 100
T3 construct: extracellular domain; Soluble analyte in Biacore; also called FcgRIIa R type; 2aR
T3 sequence (looked up): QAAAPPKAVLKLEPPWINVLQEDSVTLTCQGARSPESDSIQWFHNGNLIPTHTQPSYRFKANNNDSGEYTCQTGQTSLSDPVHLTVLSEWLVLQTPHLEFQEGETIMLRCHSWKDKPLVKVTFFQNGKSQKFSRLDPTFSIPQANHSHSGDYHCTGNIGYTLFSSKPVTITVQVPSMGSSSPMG
Experimental: as §2

Binder | He/Con_2b (IIb binding relative to GpH7-A5/GpH7-B3/GpL16-k0) [1] | He/Con_2aR (IIaR binding relative to GpH7-A5/GpH7-B3/GpL16-k0) [2] | He_2aR/2b (IIaR/IIb) [3] | He/Con_2aR [4]
B1 | 41.7 % of control (control = 100) | 55 % of control (control = 100) | 1.32 | –
B2 | – | – | – | 108 % of control
B3 | – | – | – | 110 % of control
B4 | – | – | – | 108 % of control
B5 | – | – | – | 105 % of control
B6 | – | – | – | 108 % of control
B7 | – | – | – | 110 % of control
B8 | – | 10.8 % of control (control = 100) | 1.47 | –
B9 | – | – | – | 110 % of control
B10 | 67.1 % of control (control = 100) | 85.6 % of control (control = 100) | 1.27 | –
B11 | – | – | – | 109 % of control
B12 | – | – | – | 106 % of control
B13 | 52.4 % of control (control = 100) | 74.9 % of control (control = 100) | 1.43 | –
B14 | – | – | – | 108 % of control
B15 | – | – | – | 150 % of control
B16 | – | – | – | 106 % of control
